Some targets named below: N175-364 (SARS-CoV-2) (UniProt P0DTC9); N175-419 (SARS-CoV-2) (UniProt P0DTC9); N1-246 (SARS-CoV-2) (UniProt P0DTC9); N49-246 (SARS-CoV-2) (UniProt P0DTC9).
Common to all, as to assay: co-condensation microscopy
The target of data set [1] is SARS-CoV-2 nucleocapsid (N), wild type (SARS-CoV-2) (UniProt P0DTC9).

On to “GGGAUUAAAGGUUUAUACCUUCCCAGGUAACAAACCAACCAACUUUCGAUCUCUUGUAGAUCUGUUCUCUAAACGAACUUUAAAAUCUGUGUGGCUGUCACUCGGCUGCAUGCUUAGUGCACUCACGCAGUAUAAUUAAUAACUAAUUACUGUCGUUGACAGGACACGAGUAACUCGUCUAUCUUCUGCAGGCUGCUUACGGUUUCGUCCGUGUUGCAGCCGAUCAUCAGCACAUCUAGGUUUCGUCCGGGUGUGACCGAAAGGUAAG [UTR265]”, for which the binding signal (% fluorescence in condensates) came to 8.4 with N175-364 (SARS-CoV-2); 35 in data set [1]; 9.3 in the data set with N175-419 (SARS-CoV-2); 13 with N1-246 (SARS-CoV-2); 18 in the data set with N49-246 (SARS-CoV-2).

The values above are taken from paper PMC7820290.
